Experiments:
[1] = target: 天然Stx2 (natural Shiga toxin II of enterohaemorrhagic E. coli O157:H7) (肠出血性大肠杆菌(EHEC) O157:H7) (UniProt P09385); assay: cell-based or functional assay
[2] = target: 天然Stx2 (natural Shiga toxin II of enterohaemorrhagic E. coli O157:H7) (肠出血性大肠杆菌(EHEC) O157:H7) (UniProt P09385)

Chain of UniProt P09385 (P09385 23-319, chain 1 of 2): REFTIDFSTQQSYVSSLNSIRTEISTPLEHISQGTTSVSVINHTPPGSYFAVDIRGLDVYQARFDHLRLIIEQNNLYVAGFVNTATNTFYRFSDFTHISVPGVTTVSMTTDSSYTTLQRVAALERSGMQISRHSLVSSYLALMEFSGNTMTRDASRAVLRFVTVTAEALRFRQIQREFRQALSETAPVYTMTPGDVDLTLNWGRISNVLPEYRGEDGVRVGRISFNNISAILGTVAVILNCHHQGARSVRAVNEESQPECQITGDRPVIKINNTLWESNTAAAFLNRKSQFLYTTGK
Chain of UniProt P09385 (P09386 20-89, chain 2 of 2, further chain): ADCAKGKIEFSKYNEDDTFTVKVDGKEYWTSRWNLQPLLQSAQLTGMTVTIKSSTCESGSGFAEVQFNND

B1: 1F2Fab抗体 (recombinant Fab of 1F2, expressed from Pcomb3X-1F2Fab in E. coli XL-blue) (Fab, V domains shown)
VH: SGGGLVQPGGSLKLSCAASGFTFSVYGMSWVRQTPDKRLELVATINNNGGSTYYPDSVKGRFTISRDNAKNTLYLQMSSLKSEDTAMYYCASIPLFGNYWGQGTSVTVSS
VL: MTQTPLSLPVSLGDQASISCRSSQSIVHSNGNTYLEWYLQKPGQSPKFLIYKVSRFSGVPDRFSGSGSGTDFTLKISRVEAEDLGVYYCFQGSHVPWTFGGGTKLEIKR
对Stx2细胞毒作用的抑制率 (Vero cells, MTT) [1]: 83%
affinity relative to parental mAb 1F2 [2]: 85%
